Reference: the RNAGym collection of RNA variant scans (doi:10.1073/pnas.2313332121)
Variants at the floor of the assay were thinned out.

B1: TPR 5TU (parent)
chain: GGAUCUUCUCGAUCUAACAAAAAAGACAAAUCUGCCACAAAGCUUGAGAGCAUCUUCGGAUGCAGAGGCGGCAGCCUUCGGUGGCGCGAUAGCGCCAACGUUCUCAACUAUGACACGCAAAACGCGUGCUCCGUUGAAUGGAGUUUAUCAUG

Variants of: B1
Assay: polymerase ribozyme fitness, log enrichment relative to wild type (log ratio); higher = more active; in vitro selection for triplet polymerase activity
Outline: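 Genotype fitness is the logarithm of its enrichment divided by wild-type enrichment, using inverse-variance-weighted averages of replicates. That logarithm is base 2. Enrichment was measured by Illumina sequencing of input and output libraries from one triplicate in vitro selection round, with frozen incubation at −7 °C, on PCR-built, transcribed mutant libraries of each subunit of a heterodimeric triplet polymerase ribozyme, retaining genotypes with ≥10 input reads and ≥1 read per output.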

Variant | polymerase ribozyme fitness (log ratio)
C103U U134G G141C | -4.14
G128A U139G | -4.08
U102G U111G | ≤ -4.2
A120U U148G | -3.59
A98G A119U C125A U151G | ≤ -4.2
C116A G136A | 1.97
A113C U135A G136A | -4.05
U109G C116U | -1.39
C123G G133U | -3.68
A121U U127C G143C | -4.06
A110G U144G | -3.13
U145C | 0.096
U145G | -0.131
U145A | 0.192
A107U A120U C123A | -3.58
C118U U145G | -1.09
G124U G141U | 0.513
A113G A122U G136A U148A | -3.76
A97U C118G A121G | -1.56
U109C C116U C131U A147U | -1.68
A115U A142C | -3.39
G140U U145C | -3.66
G100C A137G G141C U148A | ≤ -4.2
A120G U134G U148G | -3.72

Variant | polymerase ribozyme fitness (log ratio)
A98G C103A | -0.961
U109A U135C | -3.36
A106C A107G | -4.18
U134G U144G | -1.51
A98G C99G A122U | -1.25
A113C C116A | ≤ -4.2
A107C A119G C125A | ≤ -4.2
G128A U146G | -4.16
U151G G152U | -3.49
A107C | -3.58
A107G | -2.92
A107U | -3.06
A119G A120U | 0.0433
U102G C116U | -2.66
C108G U144C | -4.13
C96U U135C G140U | -3.67
A113U U127C | -2.98
U139A U146A | ≤ -4.2
A115G C129G | -3.64
U102G U146G | -4.17
A106G U109C | -3.91
A97G G112A A121C G141U | ≤ -4.2
U109G U151C | -3.91
G133U G141U | -2.6

Variant | polymerase ribozyme fitness (log ratio)
G133U G141C | -3.81
C123U G141U | -0.894
C99G G152A | -2.39
A97U U144A | -1.56
G126A A150C | -4.16
A137C U144A U146A | -3.95
C116U G141A U146C | 0.219
C114G G140U | -3.9
C125U U145A | -1.23
A107G C125A | -3.63
A97U U135G G140C | ≤ -4.2
G117A G141C | -3.29
G100U U151A | ≤ -4.2
G136C | -2.62
G136A | 0.579
G136U | -1.9
C99A C123G U145G | 0.0034
A137C A150G | -4.17
C99G C132U | -1.96
U101G G126U | 0.138
U102A A119C G141C | -2.4
A97U G141U | 0.189
A122C C125A G140A G143U | ≤ -4.2
G140A U146G | -3.51

Variant | polymerase ribozyme fitness (log ratio)
A137G G143C | -3.85
A98U U146G A150U | -0.247
A110G G117A U144A | -4.15
A113C G128A | -4.02
U101G A137G | -1.31
A113U U134C | -2.77
G136A G141U | 1.57
U102G G141U | -1.98
C108U U146A | -2.84
C105A A106G | -0.311
A120C G152A | -2.33
A113C | -2.35
A113U | -1.59
A113G | -0.894
C103U G128A | -3.93
U102G U144C | -3.06
C105U G124A | 0.519
C103A A106G | -0.927
U144C A147G | -0.508
A121C U139G G140A U144G | -4.07
A106C U134C | 0.274
A97U U102C A138C | ≤ -4.2
A119C G133C | -1.83
C103A A120U G124A C125U | -2.03

Variant | polymerase ribozyme fitness (log ratio)
C96U U146G | -1.29
A121U G141A | 0.973
G124A U127C | -2.79
U104G A120G | -0.0889
G117C A137G | -0.587
G133A A142G | ≤ -4.2
A122U G136U | -2.24
C116A U139A U148A | -4.12
U101C A106G | 0.00894
C108U G141U | -3.1
A98U U135A | -2.55
G128U U139C | -3.96
U134A G141C | -3.42
C99G | -0.744
C99A | -0.806
C99U | -0.26
U148G A150G | -3.79
C114G G133C | -3.93
G126A U135C | -1.38
C105U A113U | -1.37
U134G U148A | -3.87
U135G A142C | -2.54
C125G U145G | -2.69
C105U C116U G133U A142C C149U | -4.08

Variant | polymerase ribozyme fitness (log ratio)
U101G U145G | -0.0241
C99A A150G | -3.11
U127A U144C | -3.74
U148A | -2.72
U148C | -1.53
U148G | -3.37
U135A U148G | -3.41
U109G | -0.578
U109C | -2.81
U109A | -1.11
G126A G141U | -2.59
A115U U134G | -3.31
C99U C125U U144G | -0.905
C116A U148A | -3.52
C108U | -2.43
U104G U145G | -0.945
A120G G124A | 0.00161
A142G | -0.833
A142C | -0.793
A142U | -0.482
A122G | -0.303
A122U | -0.218
A122C | -0.398
C123U A137G | -0.927

Variant | polymerase ribozyme fitness (log ratio)
A121U C131U U134A | -2.42
A106G A119C C125U | -0.389
C99G C108U | -4.14
C105A A120G C123A C132U G136C | -3.32
A110U A142U A150U | ≤ -4.2
G140U G143A | ≤ -4.2
A110U C123U A142C | ≤ -4.2
G126A G133C | -0.815
A97G C103A | -0.693
A113C C118A C125U | ≤ -4.2
A97U A150G | -1.61
G128U U139A A142G | -4.07
C103G U145C | -1.74
U127G U145G | ≤ -4.2
U144A A150U | -1.5
C114U A142G | -2.95
A98U | -0.453
A98G | -0.208
C108U G117U A120G | -3.18
A98G C118A C129A | -2.75
C116A A142G | 0.244
C129A G133C | -3.55
G100A U146C | -4.17
A120C | -0.331

Variant | polymerase ribozyme fitness (log ratio)
A120U | -0.233
A120G | 0.00404
C99U G140U | -3.37
C99U G140C | -3.43
A119C U139C A142C | -4.13
G141A U146C | 0.27
U135A C149G | -4.09
U101G U144G | -0.737
U101G U144C | -1.9
G136C A142C U146A | -2.66
A98G G140C | -3.59
A119U U148A | -3.01
G100U C125G | -4.05
C105G C132A | -3.96
C132G G141C | -3.73
U101A C131U | 0.454
A97G C99U A142G | -1.1
C105U G143U | -2.41
C125G G126A | -3.42
A107G U144G | -3.59
C116G A122G | -0.408
A115G G140U | -3.41
A106C U109G | -0.424
U127A U139G G152U | ≤ -4.2

Variant | polymerase ribozyme fitness (log ratio)
C125G U134A G140A | ≤ -4.2
A97U A119G U130C | 0.572
A106C C125G | -1.27
G133U U144A | -3.29
A97U G124U C149G | -3.65
A137G U148A | -3.67
C116A C123U C125U | -3.41
G136C U145A C149G | ≤ -4.2
A150G G152U | -3.43
A110C G140A | ≤ -4.2
C116G G143A | -2.16
A97U G100A | -4.1
U127C | -1.3
U127G | -3.06
U127A | -2.94
C116A G141A | -2.34
A115G A122U G124C | -1.96
U144G U148G | -3.38
U104G C118G | -1.89
A113G C118G | -1.86
A98U G141A | -0.0351
A98U G141C | -0.0983
A106G C116U U139A | ≤ -4.2
G141A G143C | -3.92

Variant | polymerase ribozyme fitness (log ratio)
A121G U148A | -3.78
C103A G141U | -3.08
G140C G143U | -3.7
A120G U127C | -2.22
A106G G141U | 2.01
U130C A138G | -3.28
A115U G141U | -1.29
C116U A142C | -1.1
G136A A142C | -0.134
G100A G136U A142U | ≤ -4.2
A142U U146G | -1.2
C116U C118G | 0.0696
A119G G143A | 1.13
C103A A142U | -3.79
A122C C125A | -0.874
G117A A150C | -3.86
C116U A120G | -0.0851
A137C C149U | -3.9
C105G C116U U145A | -0.747
C114G G141C U148A | ≤ -4.2
U139C | -2.57
U139G | -0.159
U139A | -3.57
G126A C149G | -3.13

Variant | polymerase ribozyme fitness (log ratio)
A107U G133C | -3.72
U135C G141U | -1.69
G141U U146G | 1.06
U127G G143A A147G | ≤ -4.2
C118U G124U A142C | -1.96
C103A U139C | -3.89
C118A U139G | -0.933
A106C A115U A120C G136C | -3.11
U146A U148A | -3.37
A121U U135A | -0.658
A97U C123U | 0.268
A106C G141U | 0.961
C118U A147C | 0.751
U130G U135C | -4.07
U109C G117A U146A | -3.86
A142U U144C | -3.6
C114U A119U G143A | -3.89
C118G A122G | -0.988
A119U G124U U146A | -0.483
C131U U146C G152C | -1.2
C132A G143U | ≤ -4.2
A97U A137U | ≤ -4.2
G128U G141A | -3.74
C123G G141C | -0.168

Variant | polymerase ribozyme fitness (log ratio)
U102G A121G | -2.33
A119G G128C | -1.98
A98U A115C G143A | -3.88
U104A C125A | -0.813
A107G G117U | -4.04
G126A G140U | -3.43
C105A A150C | -3.93
C96U U134C | -0.883
U101C U102G A106G | -1.84
C114G G143A | ≤ -4.2
A147C U148A | -3.81
A106G C118A | -0.47
C105U U130A C131G G140U | -3.96
G133A | -3
G133U | -2.62
G133C | -1.65
G124A G133U U135C | -3.82
G126A U148C | -2.93
A97U A98G | -2.31
U102A C114A | -4
C99G A119C | -0.2
G140C U148G | -4.14
A107C A147U | -3.71
